The results in this text go back to patent publication US20020102706A1 (published 2002).

This test has as its target T1, Apo-2 ligand (soluble Apo-2L, Pitti et al.) (UniProt P50591 114-281).
T1 construct: also called TRAIL; 125I-Apo-2L
Nature of the test: 125I-Apo-2L binding to Apo-2DcR-transfected 293 cells; nonspecific binding with 0.5 ug/ml unlabeled Apo-2L.

T1 sequence (P50591 114-281 limits assumed): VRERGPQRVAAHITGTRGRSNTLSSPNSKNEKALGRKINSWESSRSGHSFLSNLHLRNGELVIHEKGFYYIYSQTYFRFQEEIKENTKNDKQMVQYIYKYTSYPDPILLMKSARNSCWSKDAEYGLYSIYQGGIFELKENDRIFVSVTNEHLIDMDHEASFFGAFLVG
Procedure: The effect of pre-treatment of the cells with phosphatidylinositol-specific phospholipase C (PI-PLC) on the binding was also analyzed.
(1 μg/ml) was added to one of the two aliquots derived from each transfection, 5 and the cells were incubated 1 hour at 37° C. The cells were washed and respuspended in 1 ml PBS containing 1% BSA (Sigma), and 0.04 ml aliquots were placed into tubes in triplicate. […] After a 1 hour incubation at room temperature, the cells were washed in ice cold PBS, pelleted, and counted for radioactivity.

B1: full-length native sequence human Apo-2DcR (receptor)
chain: ATTARQEEVPQQTVAPQQQRHSFKGEECPAGSHRSEHTGACNPCTEGVDYTNASNNEPSCFPCTVCKSDQKHKSSCTMTRDTVCQCKEGTFRNENSPEMCRKCSRCPSGEVQVSNCTSWDDIQCVEEFGANATVETPAAEETMNTSPGTPAPAAEETMNTSPGTPAPAAEETMTTSPGTPAPAAEETMTTSPGTPAPAAEETMTTSPGTPA
notes: also called Apo-2DcR receptor; pRK5-hApo-2DcR product
For the molecule B1, the binding result is given as “binds”.
